Where two headings read alike, the source gives them in different places.

One series addresses CchWH (Staphylococcus aureus USA300, UniProt A0A0H2XHF3 436-595). Briefly: EMSA. On the technique in general: In EMSA bound probe runs differently from free probe, usually more slowly.
The target in series [1] is T1, Cch (Staphylococcus aureus USA300, UniProt A0A0H2XHF3 1-595). Briefly: EMSA.
In another series the target is T2, LP1413 (Staphylococcus aureus USA300, UniProt Q0WXP5 1-96).
T2 sequence: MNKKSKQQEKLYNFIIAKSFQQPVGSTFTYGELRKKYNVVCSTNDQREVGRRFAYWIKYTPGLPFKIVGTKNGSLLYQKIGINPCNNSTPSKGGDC
Kind of series: EMSA.

The series “crystal structure” deals with the molecule itself. Briefly: crystal structure.
Series [2] deals with T1, Cch. Briefly: EMSA. The source holds these as a separate data set.

B1: scc-emsa-3F/4R 60 bp duplex (3' end of cch) (dsDNA)
DNA 1: TTTTAAATCCGCTAATGAAGGGATAGGCCCTTCAGGAGTTCACGAAGATTTCTAATTGTC
DNA 2: GACAATTAGAAATCTTCGTGAACTCCTGAAGGGCCTATCCCTTCATTAGCGGATTTAAAA
On to B1, for which the binding result in the series with CchWH and with Cch [1] was “binds” throughout.
In the case of GAGTAATGATATGTGGCTATGTCTTAATATATGTGAAGAA (ssDNA) [iter-int-1F ssDNA 40 nt], the binding result with LP1413 was “binds”.

B2: iter-int-1F/inter-int-2R 40 bp duplex (dsDNA)
DNA 1: GAGTAATGATATGTGGCTATGTCTTAATATATGTGAAGAA
DNA 2: TTCTTCACATATATTAAGACATAGCCACATATCATTACTC
Consider B2, for which, in the series with LP1413, the binding result is reported as “no binding”.

B3: Selenomethionine-derivatized Cch-6xHis (enzyme)
chain: MSYTLFEIGPFALDSFGWKETIPPKKDGDSEKVVRMASPIIVNARFSDPITGVEKLIITNNNGKKDIFESDILTTRNLPSLIKYGYSINEKYIRSLSYALQLMRDRLPLSELYEGVGILETPFGYLISLDKVLKSIQFNQSSPSYPIVDSAYDLTPKGTFDNWFNMYIDEVKGHLLLELAVIFGISALVTSFLKHKHEIEFAGILFSFTGQSSTGKSTAAALAVSVAGNPTKGNETLFRSWNATRNALEGYLSNNYGIPIVFDELSSTTLRDTTGLLYSIAEGQGRQRSNVHGEVKTPKNWGTSVISTSEYSIFNDSAQNDGLRVRTIEINEQFTTNATNADNIKKAVALNYGHVLPLVAKYLINREDEVIQWFYKEVDWFEAKLKDETNNTGIRMFKRYAVITTSAKILGRVLSTDIDIANIRDYFIDYHTHTVSERSLADKAIDVIIQFVAQNRGKFSDEGALKNMFENYGLISLKDDHIEVKIIANVFKQMLNNHQFQDVNNVVNALRDKGFILADRGRQTTKRSVKDNSGKKQSLVFYHLKLDVEFASILGLTKDKSLLQNWTPSNDNKAAKELFKSANEGIGPSGVHEDF
modifications: selenomethionine in place of methionine
Regarding B3, the stoichiometry N (usually the number of molecules, sites or subunits per partner or assembly) in the series “crystal structure” amounted to 6.

B4: HELA-8R ssDNA (ssDNA)
DNA: CGCTTTAAAAGAAGTCAACGTCTTACCACTTCCAGTTGTATGCCATACATATCC
With B4, in the series with Cch [2], the binding result is on record as “binds”.
